Test results: patent publication US20160159879A1 (UNIVERSITY OF NORTH CAROLINA AT CHAPEL HILL, published 2016)
Ends that are not written are not given here. * marks the point of attachment. Biotin = O=C1N[C@H]2[C@H](CS[C@H]2CCCCC(=O)*)N1

Columns and labels:
[1] = biological target: yfp-tagged αENaC stably expressed in JME nasal epithelial cells; assay: fluorescence binding isotherm on polarized JME cells expressing yfp-αENaC, 30 min, empty-vector cells as non-specific binding, Hill fit
[2] = test system: T1, Recombinant V5/6His-tagged SPLUNC1 purified from HEK293 media
T1 sequence: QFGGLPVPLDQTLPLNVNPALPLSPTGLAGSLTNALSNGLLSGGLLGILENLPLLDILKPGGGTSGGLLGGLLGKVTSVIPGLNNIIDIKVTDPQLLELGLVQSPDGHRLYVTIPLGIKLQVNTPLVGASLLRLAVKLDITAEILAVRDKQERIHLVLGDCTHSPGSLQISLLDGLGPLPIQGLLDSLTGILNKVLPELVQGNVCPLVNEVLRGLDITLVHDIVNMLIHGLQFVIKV

[3] = biological target: αβγENaC expressed in Xenopus laevis oocytes (rat) (UniProt P37089); assay: cell-based or functional assay
[4] = biological target: ENaC endogenous to primary human bronchial epithelial cultures (human) (UniProt P37088); assay: cell-based or functional assay
[5] = biological target: αβγENaC expressed in Xenopus laevis oocytes (rat, UniProt P37089 1-698; P37090 1-638; P37091 1-650); assay: cell-based or functional assay
[6] = biological target: ENaC endogenous to primary human bronchial epithelial cultures (human, UniProt P37088 1-669; P51168 1-640; P51170 1-649); assay: cell-based or functional assay
[7] = biological target: T2, Human γENaC subunit, HA (N-terminus) and V5 (C-terminus) tagged, expressed alone in HEK293T cells (human, UniProt P51170 1-649); assay: pull-down with biotinylated S18 of subunits expressed individually in HEK cells, Western blot
T2 sequence (looked up): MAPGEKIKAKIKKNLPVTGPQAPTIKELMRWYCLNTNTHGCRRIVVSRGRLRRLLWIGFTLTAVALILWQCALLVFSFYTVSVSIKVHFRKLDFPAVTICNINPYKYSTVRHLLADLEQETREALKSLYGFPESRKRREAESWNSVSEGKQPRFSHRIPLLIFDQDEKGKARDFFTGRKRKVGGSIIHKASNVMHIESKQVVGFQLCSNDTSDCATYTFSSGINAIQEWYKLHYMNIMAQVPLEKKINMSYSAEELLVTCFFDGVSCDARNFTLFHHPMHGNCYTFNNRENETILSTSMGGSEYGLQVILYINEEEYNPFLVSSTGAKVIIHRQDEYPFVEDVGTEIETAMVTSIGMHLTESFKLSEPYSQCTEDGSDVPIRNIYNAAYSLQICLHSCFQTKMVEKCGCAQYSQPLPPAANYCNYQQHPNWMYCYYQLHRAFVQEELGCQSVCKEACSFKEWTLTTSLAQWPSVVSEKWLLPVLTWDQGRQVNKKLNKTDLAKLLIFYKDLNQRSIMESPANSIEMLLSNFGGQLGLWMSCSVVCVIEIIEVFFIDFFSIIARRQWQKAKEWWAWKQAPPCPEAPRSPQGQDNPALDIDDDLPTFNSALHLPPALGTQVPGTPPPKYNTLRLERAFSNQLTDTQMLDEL

[8] = biological target: T3, Human αENaC subunit, HA (N-terminus) and V5 (C-terminus) tagged, expressed alone in HEK293T cells (human, UniProt P37088 1-669); assay: as above
T3 sequence (looked up): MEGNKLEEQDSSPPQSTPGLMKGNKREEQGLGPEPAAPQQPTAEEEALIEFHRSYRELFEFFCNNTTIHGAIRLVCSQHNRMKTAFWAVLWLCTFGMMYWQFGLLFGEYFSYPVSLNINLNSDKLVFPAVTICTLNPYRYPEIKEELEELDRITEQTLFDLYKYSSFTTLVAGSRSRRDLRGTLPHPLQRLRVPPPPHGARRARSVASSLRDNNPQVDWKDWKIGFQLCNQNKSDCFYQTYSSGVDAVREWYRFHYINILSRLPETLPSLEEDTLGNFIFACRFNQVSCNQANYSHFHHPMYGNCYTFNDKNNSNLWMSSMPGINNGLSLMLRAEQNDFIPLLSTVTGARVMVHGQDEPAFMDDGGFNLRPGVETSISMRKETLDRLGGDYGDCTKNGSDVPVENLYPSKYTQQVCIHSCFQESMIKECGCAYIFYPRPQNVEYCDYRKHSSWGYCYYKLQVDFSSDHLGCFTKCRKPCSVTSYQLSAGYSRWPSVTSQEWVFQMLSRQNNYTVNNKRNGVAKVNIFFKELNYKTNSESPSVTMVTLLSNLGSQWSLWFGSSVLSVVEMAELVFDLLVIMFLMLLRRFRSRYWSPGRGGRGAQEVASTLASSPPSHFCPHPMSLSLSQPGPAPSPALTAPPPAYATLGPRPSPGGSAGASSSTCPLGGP

[9] = biological target: T4, Human βENaC subunit, HA (N-terminus) and V5 (C-terminus) tagged, expressed in HEK293T cells (human, UniProt P51168 1-640, glycosylated (EndoH and tunicamycin experiments)); assay: peptide pull-down on neutravidin beads, Western blot with anti-V5
T4 sequence (looked up): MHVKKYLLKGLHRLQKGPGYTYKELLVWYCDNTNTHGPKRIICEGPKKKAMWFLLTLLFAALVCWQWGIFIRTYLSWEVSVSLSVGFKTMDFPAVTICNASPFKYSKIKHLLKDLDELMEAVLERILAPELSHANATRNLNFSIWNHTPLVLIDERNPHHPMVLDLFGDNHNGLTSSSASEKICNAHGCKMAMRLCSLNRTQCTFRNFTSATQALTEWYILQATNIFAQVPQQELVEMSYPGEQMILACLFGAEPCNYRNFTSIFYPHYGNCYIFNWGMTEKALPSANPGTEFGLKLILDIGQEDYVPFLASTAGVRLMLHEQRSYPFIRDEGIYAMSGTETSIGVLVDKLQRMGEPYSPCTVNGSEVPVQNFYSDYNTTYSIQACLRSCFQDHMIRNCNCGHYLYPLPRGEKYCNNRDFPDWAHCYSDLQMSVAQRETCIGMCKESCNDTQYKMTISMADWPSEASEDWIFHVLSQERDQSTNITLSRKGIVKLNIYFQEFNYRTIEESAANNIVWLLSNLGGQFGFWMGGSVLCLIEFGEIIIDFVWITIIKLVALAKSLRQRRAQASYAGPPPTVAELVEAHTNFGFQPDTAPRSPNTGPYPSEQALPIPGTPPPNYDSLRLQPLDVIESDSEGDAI

αβγENaC expressed in Xenopus laevis oocytes, sequence (P37089 whole entry, chain 1 of 3): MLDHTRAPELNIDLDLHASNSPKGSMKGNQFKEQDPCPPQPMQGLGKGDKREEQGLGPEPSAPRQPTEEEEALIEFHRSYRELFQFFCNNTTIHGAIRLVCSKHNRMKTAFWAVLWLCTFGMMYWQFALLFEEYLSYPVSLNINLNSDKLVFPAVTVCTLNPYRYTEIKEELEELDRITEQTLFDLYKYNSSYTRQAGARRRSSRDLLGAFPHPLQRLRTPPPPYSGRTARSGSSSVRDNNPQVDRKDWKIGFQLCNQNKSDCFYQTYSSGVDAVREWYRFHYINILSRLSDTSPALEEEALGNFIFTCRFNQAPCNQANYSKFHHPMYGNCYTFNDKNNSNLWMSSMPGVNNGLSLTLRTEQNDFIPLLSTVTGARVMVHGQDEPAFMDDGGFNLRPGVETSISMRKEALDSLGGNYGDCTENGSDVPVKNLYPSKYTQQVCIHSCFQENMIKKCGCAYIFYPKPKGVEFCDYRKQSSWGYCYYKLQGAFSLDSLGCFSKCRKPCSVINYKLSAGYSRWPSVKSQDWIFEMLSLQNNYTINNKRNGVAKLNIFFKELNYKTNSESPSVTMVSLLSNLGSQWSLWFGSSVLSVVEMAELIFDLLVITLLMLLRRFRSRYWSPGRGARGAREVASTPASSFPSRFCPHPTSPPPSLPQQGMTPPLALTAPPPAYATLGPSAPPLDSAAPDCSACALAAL
αβγENaC expressed in Xenopus laevis oocytes, sequence (P37090 whole entry, chain 2 of 3): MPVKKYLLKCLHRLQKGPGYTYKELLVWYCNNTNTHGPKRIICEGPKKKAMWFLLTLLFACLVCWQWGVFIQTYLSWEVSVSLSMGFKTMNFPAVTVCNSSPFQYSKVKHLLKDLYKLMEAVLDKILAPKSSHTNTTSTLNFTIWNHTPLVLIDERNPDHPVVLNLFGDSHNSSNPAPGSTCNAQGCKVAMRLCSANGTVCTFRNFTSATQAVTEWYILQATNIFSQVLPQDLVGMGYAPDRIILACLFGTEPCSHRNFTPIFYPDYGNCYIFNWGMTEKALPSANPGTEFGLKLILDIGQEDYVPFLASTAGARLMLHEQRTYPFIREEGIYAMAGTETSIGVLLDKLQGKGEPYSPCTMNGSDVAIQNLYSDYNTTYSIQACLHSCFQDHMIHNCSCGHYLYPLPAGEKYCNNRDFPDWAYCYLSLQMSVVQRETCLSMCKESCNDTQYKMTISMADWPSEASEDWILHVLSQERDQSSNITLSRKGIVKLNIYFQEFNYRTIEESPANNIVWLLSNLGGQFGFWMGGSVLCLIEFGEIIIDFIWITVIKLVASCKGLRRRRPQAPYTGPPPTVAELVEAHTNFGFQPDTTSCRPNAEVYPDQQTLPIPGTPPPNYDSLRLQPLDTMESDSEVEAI
αβγENaC expressed in Xenopus laevis oocytes, sequence (P37091 whole entry, chain 3 of 3): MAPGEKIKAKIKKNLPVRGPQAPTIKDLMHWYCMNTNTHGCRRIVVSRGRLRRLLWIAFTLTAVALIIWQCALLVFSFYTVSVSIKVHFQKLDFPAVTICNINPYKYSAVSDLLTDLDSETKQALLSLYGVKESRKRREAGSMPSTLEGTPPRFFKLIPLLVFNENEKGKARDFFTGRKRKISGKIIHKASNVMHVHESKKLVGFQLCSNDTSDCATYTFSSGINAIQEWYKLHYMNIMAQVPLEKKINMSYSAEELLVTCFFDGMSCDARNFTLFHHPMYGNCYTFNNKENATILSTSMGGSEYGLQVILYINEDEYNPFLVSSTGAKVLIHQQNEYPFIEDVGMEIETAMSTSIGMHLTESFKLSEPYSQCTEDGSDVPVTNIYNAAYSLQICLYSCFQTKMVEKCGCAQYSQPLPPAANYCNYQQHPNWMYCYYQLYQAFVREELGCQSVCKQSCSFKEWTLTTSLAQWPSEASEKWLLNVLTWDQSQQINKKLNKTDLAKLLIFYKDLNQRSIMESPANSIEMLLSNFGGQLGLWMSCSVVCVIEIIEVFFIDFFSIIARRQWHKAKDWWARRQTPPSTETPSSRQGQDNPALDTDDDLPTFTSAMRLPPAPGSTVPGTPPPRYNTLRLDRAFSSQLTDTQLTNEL
αβγENaC expressed in Xenopus laevis oocytes (rat), sequence (P37089 whole entry, chain 1 of 3): as the sequence (P37089 whole entry, chain 1 of 3) above
αβγENaC expressed in Xenopus laevis oocytes (rat), sequence (P37090 whole entry, chain 2 of 3, further chain): as the sequence (P37090 whole entry, chain 2 of 3) above
αβγENaC expressed in Xenopus laevis oocytes (rat), sequence (P37091 whole entry, chain 3 of 3, further chain): as the sequence (P37091 whole entry, chain 3 of 3) above

For “Texas red-labeled recombinant SPLUNC1 (from UniProt Q9NP55 20-256)”, which Kd [1] is on record?
Its Kd is 0.055 µg/mL.

Trypsin was tested. Which “cleavage of the fluorogenic substrate BGAR-MCA by 1.0 or 0.3 U/ml trypsin” value [2] did it give?
Its value is 50 ng/ml rSPLUNC1 had only a modest affect (˜10%) on the ability of either 1.0 or 0.3 U/ml trypsin to cleave a fluorogenic substrate.

For “Recombinant V5/6His-tagged SPLUNC1 purified from HEK293 media (from UniProt Q9NP55 20-256)”, which decrease in ENaC currents (amiloride-sensitive), two electrode voltage clamp in oocytes [3] is on record?
The decrease in ENaC currents (amiloride-sensitive), two electrode voltage clamp in oocytes was 70%.

And the transepithelial electrical resistance [4]?
The transepithelial electrical resistance was 33%.

B1: V5-tagged SPLUNC1 expressed in Xenopus oocytes from injected cRNA (other, not shown: small tags and cut ends)
chain: QFGGLPVPLDQTLPLNVNPALPLSPTGLAGSLTNALSNGLLSGGLLGILENLPLLDILKPGGGTSGGLLGGLLGKVTSVIPGLNNIIDIKVTDPQLLELGLVQSPDGHRLYVTIPLGIKLQVNTPLVGASLLRLAVKLDITAEILAVRDKQERIHLVLGDCTHSPGSLQISLLDGLGPLPIQGLLDSLTGILNKVLPELVQGNVCPLVNEVLRGLDITLVHDIVNMLIHGLQFVIKV
With B1 as the molecule, how does the “decrease in amiloride-sensitive current relative to control oocytes” value [5] read?
Its value is about 70%.

For GGLPVPLDQTLPLNVNPA [S18 peptide (amino acids 22-39 of human SPLUNC1)], which “IC50, dose response of ASL height in CF HBECs 8 h post-S18 addition” value [6] is on record?
The value was 600 nM.

Does Biotin-GGLPVPLDQTLPLNVNPA (also called G22-A39) [Biotinylated S18 peptide] bind [7]?
Result: no binding

Does Biotin-GGLPVPLDQTLPLNVNPA (also called G22-A39) [Biotinylated S18 peptide] bind [8]?
Result: no binding

Does Biotin-ADGGLLLLNNPPPPQTVV (also called ADG) [Control peptide ABC (alphabetized G22-A39), biotinylated] bind [9]?
Result: no binding
